Here are results for 78 sequences from the supplement of paper PMC7877785.

This data set in a line: self-splicing fitness, log relative to wild type (ln ratio); higher = more splicing; Tetrahymena group I intron in knt gene, E. coli kanamycin selection, DiMSum; sequences stand for … in CUCUCU…GGAGGGAAAAGUUAUCAGGCAUGCACCUGGUAGCUAGUCUUUAAACCAAUAGAUUGCAUCGGUUUAAAAGGCAAGACCGUCAAAUUGCGGGAAAGGGGUCAACAGCCGUUCAGUACCAAGUCUCAGGGGAAACUUUGAGAUGGCCUUGCAAAGGGUAUGGUAAUAAGCUGACGGACAUGGUCCUAACCACGCAGCCAAGUCCUAAGUCAACAGAUCUUCUGUUGAUAUGGAUGCAGUUCACAGACUAAAUGUCGGUCGGGGAAGAUGUAUUCUUCUCAUAAGAUAUAGUCGGACCUCUCCUUAAUGGGAGCUAGCGGAUGAAGUGAUGCAACACUGGAGCCGCUGGGAACUAAUUUGUAUGCGAAAGUAUAUUGAUUAGUUUUGGAGUACUCGUGGUCG
In outline: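 A randomised library covering all eight P1ex-region intron nucleotides was built with the intron in the knt kanamycin-resistance gene on pET-22b(+) and held in E. coli BL21(DE3). Cells were grown overnight at 37°C or 30°C on LB agar, with or without 25 μg/mL kanamycin, plus 100 μg/mL carbenicillin, 50 μM IPTG and 0.2% rhamnose, and pooled colonies were amplicon-sequenced on an Illumina HiSeq 2500. DiMSum fitness is the error-weighted combination of wild-type-normalised replicate fold changes, kanamycin versus none.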

± gives the uncertainty stated by the source.

For the sequence CCCGAGCAAUAUUACGUAUU, the “self-splicing fitness (ln)” value reads like this: (30 °C) -3.8 ± 0.17; (37 °C) -3.48 ± 0.24. The matching figures for CCCGAGCAAUAUUACGUCAU: -3.95 ± 0.31 and -2.99 ± 0.26. The matching figures for CCCGAGCAAUAUUACGUCUG: -3.73 ± 0.29 and -2.32 ± 0.26. Turning to CCCGAGCAAUAUUACGUGUU, the “self-splicing fitness (ln)” value is -3.93 ± 0.15 (30 °C) and -3 ± 0.17 (37 °C). The like results for CCCGAGCAAUAUUACGUUCG were, in that order, -4.22 ± 0.42 and -2.55 ± 0.3. For the sequence CCCUAGCAAUAUUACGAACA, the “self-splicing fitness (ln)” value (37 °C) is -2.55 ± 0.42. As for CCCUAGCAAUAUUACGAAGG, the “self-splicing fitness (ln)” value by setting is: (30 °C) -4.03 ± 0.21; (37 °C) -2.71 ± 0.23. The like results for CCCUAGCAAUAUUACGAGCG were, in that order, -2.86 ± 0.21 and -1.13 ± 0.19. The like results for CCCUAGCAAUAUUACGAUUG were, in that order, -3.45 ± 0.21 and -2.38 ± 0.21. The matching figures for CCCUAGCAAUAUUACGCAGA: -3.68 ± 0.31 and -1.73 ± 0.15.

As to CCCUAGCAAUAUUACGCCAC, the “self-splicing fitness (ln)” value by setting is: (30 °C) -2.88 ± 0.27; (37 °C) -1.6 ± 0.26.

Regarding CCCUAGCAAUAUUACGCCCA, the “self-splicing fitness (ln)” value (30 °C) is -3.12 ± 0.25 and the “self-splicing fitness (ln)” value (37 °C) was -3.76 ± 0.42. The like results for CCCUAGCAAUAUUACGCUCG were, in that order, -2.25 ± 0.2 and -2.85 ± 0.48. Turning to CCCUAGCAAUAUUACGCUUA, the “self-splicing fitness (ln)” value runs as follows: (30 °C) -3.78 ± 0.18; (37 °C) -2.86 ± 0.12. The like results for CCCUAGCAAUAUUACGCUUC were, in that order, -2.66 ± 0.1 and -2.36 ± 0.16.

Turning to CCCUAGCAAUAUUACGGACC, the “self-splicing fitness (ln)” value (30 °C) is -0.914 ± 0.3. CCCUAGCAAUAUUACGGAGG: the “self-splicing fitness (ln)” value reads like this: (30 °C) -2.87 ± 0.15; (37 °C) -2.77 ± 0.26. The like results for CCCUAGCAAUAUUACGGCAU were, in that order, -3.41 ± 0.24 and -1.94 ± 0.17. The like results for CCCUAGCAAUAUUACGGGGG were, in that order, -3.85 ± 0.24 and -3.36 ± 0.3. The like results for CCCUAGCAAUAUUACGUCAA were, in that order, -3.16 ± 0.32 and -3.46 ± 0.39. CCCUAGCAAUAUUACGUCCG: the “self-splicing fitness (ln)” value was -4.17 ± 0.26 (30 °C) and -2.57 ± 0.23 (37 °C). Take CCCUAGCAAUAUUACGUCCU: the “self-splicing fitness (ln)” value (30 °C) was -4.12 ± 0.37 and the “self-splicing fitness (ln)” value (37 °C) is -2.06 ± 0.28.

With CCCUAGCAAUAUUACGUCUC, the “self-splicing fitness (ln)” value runs as follows: (30 °C) -3.71 ± 0.41; (37 °C) -2.67 ± 0.27.

Consider CCCUAGCAAUAUUACGUUAU, for which the “self-splicing fitness (ln)” value reads like this: (30 °C) -4.33 ± 0.26; (37 °C) -2.76 ± 0.19.

For CCGAAGCAAUAUUACGACUA, the “self-splicing fitness (ln)” value is -2.1 ± 0.37 (30 °C) and -2.65 ± 0.36 (37 °C).

As to CCGAAGCAAUAUUACGAUAG, the “self-splicing fitness (ln)” value by setting is: (30 °C) -0.89 ± 0.061; (37 °C) -0.284 ± 0.08. In the case of CCGAAGCAAUAUUACGCAAU, the “self-splicing fitness (ln)” value is -3.92 ± 0.4 (30 °C) and -1.94 ± 0.23 (37 °C).

As for CCGAAGCAAUAUUACGCACA, the “self-splicing fitness (ln)” value (30 °C) is -3.87 ± 0.37 and the “self-splicing fitness (ln)” value (37 °C) was -2.59 ± 0.28.

As for CCGAAGCAAUAUUACGCACU, the “self-splicing fitness (ln)” value is, setting by setting: (30 °C) -2.98 ± 0.26; (37 °C) -2.68 ± 0.44. The matching figures for CCGAAGCAAUAUUACGCGAG: -2.65 ± 0.11 and -2.08 ± 0.15. The matching figures for CCGAAGCAAUAUUACGGAGA: -2.52 ± 0.25 and -2.68 ± 0.34.

Consider CCGAAGCAAUAUUACGGAUG, for which the “self-splicing fitness (ln)” value (30 °C) was -2.94 ± 0.19 and the “self-splicing fitness (ln)” value (37 °C) is -0.504 ± 0.095. The matching figures for CCGAAGCAAUAUUACGGCCG: -0.396 ± 0.099 and -0.442 ± 0.12. The like results for CCGAAGCAAUAUUACGGUAU were, in that order, -3.13 ± 0.25 and -3.64 ± 0.36. As for CCGAAGCAAUAUUACGGUGA, under “37 °C”, the “self-splicing fitness (ln)” value is -3.25 ± 0.43. Consider CCGAAGCAAUAUUACGGUGC, for which the “self-splicing fitness (ln)” value runs as follows: (30 °C) -3.26 ± 0.3; (37 °C) -2.26 ± 0.39. As to CCGAAGCAAUAUUACGUGAA, the “self-splicing fitness (ln)” value by setting is: (30 °C) -3.64 ± 0.16; (37 °C) -2.82 ± 0.14. The matching figures for CCGAAGCAAUAUUACGUGCC: -2.83 ± 0.29 and -2.64 ± 0.44. As to CCGAAGCAAUAUUACGUGUA, the “self-splicing fitness (ln)” value (30 °C) was -4.03 ± 0.22 and the “self-splicing fitness (ln)” value (37 °C) was -2.81 ± 0.19. The like results for CCGAAGCAAUAUUACGUUCC were, in that order, -3.94 ± 0.37 and -2.81 ± 0.37. The matching figures for CCGCAGCAAUAUUACGACUU: -3.51 ± 0.35 and -1.68 ± 0.32. On to CCGCAGCAAUAUUACGAGAG, for which the “self-splicing fitness (ln)” value reads like this: (30 °C) -2.62 ± 0.084; (37 °C) -1.56 ± 0.082.

As for CCGCAGCAAUAUUACGAGCA, the “self-splicing fitness (ln)” value by setting is: (30 °C) -3.01 ± 0.38; (37 °C) -3.24 ± 0.47. The like results for CCGCAGCAAUAUUACGCACU were, in that order, -2.9 ± 0.19 and -2.51 ± 0.24.

As for CCGCAGCAAUAUUACGCAUG, the “self-splicing fitness (ln)” value runs as follows: (30 °C) -2.91 ± 0.1; (37 °C) -0.661 ± 0.076.

As for CCGCAGCAAUAUUACGCCAA, the “self-splicing fitness (ln)” value by setting is: (30 °C) -3.73 ± 0.38; (37 °C) -2.06 ± 0.34. Regarding CCGCAGCAAUAUUACGCCCA, for the setting “37 °C”, the “self-splicing fitness (ln)” value is -2.55 ± 0.31.

Consider CCGCAGCAAUAUUACGCGCA, for which the “self-splicing fitness (ln)” value reads like this: (30 °C) -3.08 ± 0.27; (37 °C) -1.41 ± 0.16. The like results for CCGCAGCAAUAUUACGCGUA were, in that order, -2.58 ± 0.16 and -0.978 ± 0.11. The like results for CCGCAGCAAUAUUACGCUCU were, in that order, -4.04 ± 0.42 and -2.18 ± 0.2. With CCGCAGCAAUAUUACGCUGG, the “self-splicing fitness (ln)” value reads like this: (30 °C) -2.24 ± 0.11; (37 °C) -2.92 ± 0.24. Take CCGCAGCAAUAUUACGCUGU: the “self-splicing fitness (ln)” value runs as follows: (30 °C) -3.3 ± 0.36; (37 °C) -2.85 ± 0.23.

On to CCGCAGCAAUAUUACGCUUU, for which the “self-splicing fitness (ln)” value is, setting by setting: (30 °C) -3.86 ± 0.18; (37 °C) -2.97 ± 0.18. The matching figures for CCGCAGCAAUAUUACGGAAC: -3.52 ± 0.41 and -3.41 ± 0.29. On to CCGCAGCAAUAUUACGGAGC, for which the “self-splicing fitness (ln)” value was -3.52 ± 0.14 (30 °C) and -2.48 ± 0.18 (37 °C). The like results for CCGCAGCAAUAUUACGGAGU were, in that order, -4.11 ± 0.21 and -3.01 ± 0.23. The like results for CCGCAGCAAUAUUACGGCUA were, in that order, -3.46 ± 0.23 and -2.61 ± 0.22. The like results for CCGCAGCAAUAUUACGGCUU were, in that order, -4.44 ± 0.27 and -2.45 ± 0.21. With CCGCAGCAAUAUUACGGGAC, the “self-splicing fitness (ln)” value is -4.12 ± 0.46 (30 °C) and -2.65 ± 0.29 (37 °C). The like results for CCGCAGCAAUAUUACGGGAG were, in that order, -3.26 ± 0.16 and -3.06 ± 0.24.

CCGCAGCAAUAUUACGGGCU: the “self-splicing fitness (ln)” value reads like this: (30 °C) -3.56 ± 0.18; (37 °C) -3.05 ± 0.22. Turning to CCGCAGCAAUAUUACGGUUC, the “self-splicing fitness (ln)” value runs as follows: (30 °C) -3.51 ± 0.28; (37 °C) -3.67 ± 0.37. The like results for CCGCAGCAAUAUUACGUGGG were, in that order, -3.41 ± 0.12 and -3.02 ± 0.17. The matching figures for CCGCAGCAAUAUUACGUUAA: -3.03 ± 0.18 and -2.1 ± 0.2. On to CCGCAGCAAUAUUACGUUUG, for which the “self-splicing fitness (ln)” value by setting is: (30 °C) -1.62 ± 0.065; (37 °C) -1.36 ± 0.096. As to CCGGAGCAAUAUUACGAAUC, the “self-splicing fitness (ln)” value (30 °C) is -4.01 ± 0.46. The same measure, in the same setting: then CCGGAGCAAUAUUACGACCG, with -1.71 ± 0.5; and CCGGAGCAAUAUUACGCAAU, with -2.59 ± 0.36. As for CCGGAGCAAUAUUACGCCAG, the “self-splicing fitness (ln)” value was -3.49 ± 0.2 (30 °C) and -2.31 ± 0.24 (37 °C). With CCGGAGCAAUAUUACGCCGA, the “self-splicing fitness (ln)” value (30 °C) is -3.86 ± 0.41. On the same count and under the same terms, with CCGGAGCAAUAUUACGCGCU the figure was -1.24 ± 0.17. For the sequence CCGGAGCAAUAUUACGCGUC, the “self-splicing fitness (ln)” value (37 °C) was -2.18 ± 0.39. Consider CCGGAGCAAUAUUACGGGGG, for which the “self-splicing fitness (ln)” value (30 °C) was -3.5 ± 0.2 and the “self-splicing fitness (ln)” value (37 °C) is -1.83 ± 0.17. The matching figures for CCGGAGCAAUAUUACGGGGU: -3.59 ± 0.2 and -2.93 ± 0.26. The like results for CCGGAGCAAUAUUACGGUUA were, in that order, -2.44 ± 0.35 and -2.64 ± 0.48.

For the sequence CCGGAGCAAUAUUACGGUUG, the “self-splicing fitness (ln)” value runs as follows: (30 °C) -1.16 ± 0.14; (37 °C) -1.25 ± 0.16.

On to CCGGAGCAAUAUUACGUAAA, for which the “self-splicing fitness (ln)” value by setting is: (30 °C) -3.29 ± 0.25; (37 °C) -2.09 ± 0.47.

On to CCGGAGCAAUAUUACGUAAC, for which the “self-splicing fitness (ln)” value is, setting by setting: (30 °C) -2.38 ± 0.38; (37 °C) -1.45 ± 0.43.
